Data published in IntAct's records for PubMed 26245371.

Key:
epas1_mouse Epas1 = epas1_mouse Epas1 (UniProt P97481)
arnt_mouse Arnt [1] = biological target: arnt_mouse Arnt (UniProt P53762)
arnt_mouse Arnt [2] = biological target: arnt_mouse Arnt (UniProt P53762); remark: listed apart in the source

Hif1a, Q61221-1, sequence (Q61221 whole entry): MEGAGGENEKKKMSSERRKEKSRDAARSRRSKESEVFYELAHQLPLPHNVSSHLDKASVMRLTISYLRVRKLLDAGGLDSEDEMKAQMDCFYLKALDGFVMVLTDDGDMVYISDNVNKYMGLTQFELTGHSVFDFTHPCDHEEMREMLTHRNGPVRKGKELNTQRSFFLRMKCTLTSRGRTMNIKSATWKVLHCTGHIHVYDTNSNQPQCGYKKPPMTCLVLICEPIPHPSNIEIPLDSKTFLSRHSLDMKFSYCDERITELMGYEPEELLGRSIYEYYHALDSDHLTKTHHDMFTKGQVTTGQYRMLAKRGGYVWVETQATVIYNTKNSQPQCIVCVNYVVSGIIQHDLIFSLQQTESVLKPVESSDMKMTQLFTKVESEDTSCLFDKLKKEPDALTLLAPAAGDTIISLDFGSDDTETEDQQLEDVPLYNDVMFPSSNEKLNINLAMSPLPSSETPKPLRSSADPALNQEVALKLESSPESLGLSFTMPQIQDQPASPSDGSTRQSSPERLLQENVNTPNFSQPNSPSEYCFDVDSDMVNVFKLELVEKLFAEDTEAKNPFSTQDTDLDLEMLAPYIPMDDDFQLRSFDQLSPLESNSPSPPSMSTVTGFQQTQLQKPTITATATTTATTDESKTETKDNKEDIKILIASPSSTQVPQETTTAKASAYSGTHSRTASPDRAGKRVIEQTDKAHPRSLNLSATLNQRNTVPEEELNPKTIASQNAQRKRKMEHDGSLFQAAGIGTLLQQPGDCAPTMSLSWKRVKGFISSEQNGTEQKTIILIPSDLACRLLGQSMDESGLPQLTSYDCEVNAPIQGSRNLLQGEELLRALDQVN
Hypoxia-inducible factor 1-alpha (Mus musculus), Q61221-1 R170A, sequence (Q61221 whole entry R170A): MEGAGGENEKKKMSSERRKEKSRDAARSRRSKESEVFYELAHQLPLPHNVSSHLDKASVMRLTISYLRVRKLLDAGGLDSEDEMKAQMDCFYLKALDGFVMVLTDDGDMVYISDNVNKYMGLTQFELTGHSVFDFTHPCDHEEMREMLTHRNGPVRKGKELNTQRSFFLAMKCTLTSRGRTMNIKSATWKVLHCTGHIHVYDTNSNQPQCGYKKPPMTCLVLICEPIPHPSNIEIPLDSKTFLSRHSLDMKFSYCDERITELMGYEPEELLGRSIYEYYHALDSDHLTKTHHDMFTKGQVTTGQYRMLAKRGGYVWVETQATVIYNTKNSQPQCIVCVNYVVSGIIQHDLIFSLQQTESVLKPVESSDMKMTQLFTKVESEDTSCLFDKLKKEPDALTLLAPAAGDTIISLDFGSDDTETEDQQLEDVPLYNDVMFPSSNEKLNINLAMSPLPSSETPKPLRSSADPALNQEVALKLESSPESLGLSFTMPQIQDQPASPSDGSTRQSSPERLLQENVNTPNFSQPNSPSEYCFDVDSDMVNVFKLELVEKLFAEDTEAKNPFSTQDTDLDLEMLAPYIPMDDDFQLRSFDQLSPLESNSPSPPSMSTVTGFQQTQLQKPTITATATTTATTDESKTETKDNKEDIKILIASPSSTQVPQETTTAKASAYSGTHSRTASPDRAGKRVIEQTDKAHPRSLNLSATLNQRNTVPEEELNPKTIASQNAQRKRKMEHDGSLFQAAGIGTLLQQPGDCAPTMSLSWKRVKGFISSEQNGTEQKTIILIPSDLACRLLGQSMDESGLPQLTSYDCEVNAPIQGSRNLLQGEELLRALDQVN
Hypoxia-inducible factor 1-alpha (Mus musculus), Q61221-1 R170A;V191D, sequence (Q61221 whole entry R170A/V191D): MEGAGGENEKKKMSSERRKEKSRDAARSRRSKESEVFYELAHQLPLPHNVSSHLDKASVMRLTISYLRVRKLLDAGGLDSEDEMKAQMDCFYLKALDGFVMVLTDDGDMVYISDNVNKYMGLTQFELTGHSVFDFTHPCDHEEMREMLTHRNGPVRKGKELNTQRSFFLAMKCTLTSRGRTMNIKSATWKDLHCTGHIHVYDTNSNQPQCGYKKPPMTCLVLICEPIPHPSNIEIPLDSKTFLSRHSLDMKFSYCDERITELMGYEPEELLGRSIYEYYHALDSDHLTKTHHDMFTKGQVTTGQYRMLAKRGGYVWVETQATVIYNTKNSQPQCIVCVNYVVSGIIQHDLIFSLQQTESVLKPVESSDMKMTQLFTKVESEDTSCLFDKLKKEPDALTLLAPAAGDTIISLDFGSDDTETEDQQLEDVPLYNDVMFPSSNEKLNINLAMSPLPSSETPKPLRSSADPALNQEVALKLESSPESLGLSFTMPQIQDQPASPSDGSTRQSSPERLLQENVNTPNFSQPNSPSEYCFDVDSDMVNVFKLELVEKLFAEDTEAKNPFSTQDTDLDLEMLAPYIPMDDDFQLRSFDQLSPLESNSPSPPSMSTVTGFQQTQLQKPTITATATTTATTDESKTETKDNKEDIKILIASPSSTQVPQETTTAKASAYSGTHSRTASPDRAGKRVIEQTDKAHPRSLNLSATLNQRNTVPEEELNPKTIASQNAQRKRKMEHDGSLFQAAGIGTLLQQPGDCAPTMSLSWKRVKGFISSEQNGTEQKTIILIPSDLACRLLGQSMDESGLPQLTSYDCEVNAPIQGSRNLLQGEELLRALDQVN
Hypoxia-inducible factor 1-alpha (Mus musculus), Q61221-1 V191D, sequence (Q61221 whole entry V191D): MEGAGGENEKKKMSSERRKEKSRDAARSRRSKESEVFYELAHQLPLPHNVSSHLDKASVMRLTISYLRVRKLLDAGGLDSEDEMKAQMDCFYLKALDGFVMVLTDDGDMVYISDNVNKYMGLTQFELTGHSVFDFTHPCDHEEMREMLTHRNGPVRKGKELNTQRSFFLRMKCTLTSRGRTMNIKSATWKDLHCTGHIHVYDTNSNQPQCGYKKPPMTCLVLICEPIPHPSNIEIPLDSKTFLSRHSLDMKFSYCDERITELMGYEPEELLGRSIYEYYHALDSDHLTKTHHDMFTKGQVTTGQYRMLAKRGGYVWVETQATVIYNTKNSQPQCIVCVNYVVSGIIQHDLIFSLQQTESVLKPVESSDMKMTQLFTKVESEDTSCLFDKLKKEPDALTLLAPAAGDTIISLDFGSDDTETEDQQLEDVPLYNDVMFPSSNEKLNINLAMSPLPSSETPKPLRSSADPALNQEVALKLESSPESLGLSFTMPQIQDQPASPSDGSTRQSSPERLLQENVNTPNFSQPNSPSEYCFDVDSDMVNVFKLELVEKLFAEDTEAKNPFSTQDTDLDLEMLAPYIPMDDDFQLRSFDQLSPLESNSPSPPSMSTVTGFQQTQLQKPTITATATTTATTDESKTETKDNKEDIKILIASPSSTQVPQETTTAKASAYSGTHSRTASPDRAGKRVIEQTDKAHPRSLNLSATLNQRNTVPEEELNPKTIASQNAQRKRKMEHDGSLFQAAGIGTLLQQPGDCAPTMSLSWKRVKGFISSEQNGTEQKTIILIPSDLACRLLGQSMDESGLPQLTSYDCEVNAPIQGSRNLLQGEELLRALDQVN

| Substance | effect of a mutation on the interaction (epas1_mouse Epas1) | effect of a mutation on the interaction (Hif1a, Q61221-1) | effect of a mutation on the interaction (arnt_mouse Arnt [1]) | effect of a mutation on the interaction (arnt_mouse Arnt [2]) |
| --- | --- | --- | --- | --- |
| Aryl hydrocarbon receptor nuclear translocator (Mus musculus), P53762 R266A | decreasing interaction strength | – | – | – |
| Aryl hydrocarbon receptor nuclear translocator (Mus musculus), P53762 V136D | disrupting interaction strength | disrupting interaction strength | – | – |
| Aryl hydrocarbon receptor nuclear translocator (Mus musculus), P53762 V305D | decreasing interaction strength | decreasing interaction strength | – | – |
| Aryl hydrocarbon receptor nuclear translocator (Mus musculus), P53762 I264D | disrupting interaction strength | decreasing interaction strength | – | – |
| Aryl hydrocarbon receptor nuclear translocator (Mus musculus), P53762 R366A | decreasing interaction strength | decreasing interaction strength | – | – |
| Aryl hydrocarbon receptor nuclear translocator (Mus musculus), P53762 I168D | disrupting interaction strength | disrupting interaction strength | – | – |
| Aryl hydrocarbon receptor nuclear translocator (Mus musculus), P53762 L167E;A171D | disrupting interaction strength | decreasing interaction strength | – | – |
| Endothelial PAS domain-containing protein 1 (Mus musculus), P97481 R171A;V192D | – | – | disrupting interaction strength | – |
| Aryl hydrocarbon receptor nuclear translocator (Mus musculus), P53762 L112E | disrupting interaction strength | disrupting interaction strength | – | – |
| Aryl hydrocarbon receptor nuclear translocator (Mus musculus), P53762 L112E;L132E | disrupting interaction strength | disrupting interaction strength | – | – |
| Hypoxia-inducible factor 1-alpha (Mus musculus), Q61221-1 R170A | – | – | – | decreasing interaction strength |
| Endothelial PAS domain-containing protein 1 (Mus musculus), P97481 R171A | – | – | decreasing interaction strength | – |
| Aryl hydrocarbon receptor nuclear translocator (Mus musculus), P53762 L132E | disrupting interaction strength | disrupting interaction strength | – | – |
| Hypoxia-inducible factor 1-alpha (Mus musculus), Q61221-1 V191D | – | – | – | decreasing interaction strength |
| Aryl hydrocarbon receptor nuclear translocator (Mus musculus), P53762 I264D;V305D | decreasing interaction strength | decreasing interaction strength | – | – |
| Aryl hydrocarbon receptor nuclear translocator (Mus musculus), P53762 R366A;N448A | disrupting interaction strength | disrupting interaction strength | – | – |
| Endothelial PAS domain-containing protein 1 (Mus musculus), P97481 V192D | – | – | decreasing interaction strength | – |
| Endothelial PAS domain-containing protein 1 (Mus musculus), P97481 H194A | – | – | decreasing interaction strength | – |
| Hypoxia-inducible factor 1-alpha (Mus musculus), Q61221-1 R170A;V191D | – | – | – | decreasing interaction strength |
| Endothelial PAS domain-containing protein 1 (Mus musculus), P97481 F169D | – | – | decreasing interaction strength | – |
| Aryl hydrocarbon receptor nuclear translocator (Mus musculus), P53762 A171D | disrupting interaction strength | decreasing interaction strength | – | – |
| Aryl hydrocarbon receptor nuclear translocator (Mus musculus), P53762 L167E | disrupting interaction strength | decreasing interaction strength | – | – |
